Data on seven molecules can be found in patent US20110091994A1, “Methods for Screening Compounds for Treating and/or Preventing an Hepatitis C Virus Infection” (priority 2008, published 2011).

Experiment [1] has as its target T1, HCV ORFs (Gal4-DB fusions) (Hepatitis C virus genotype 1b, UniProt Q9WMX2).
T1 construct: expressed in transfected cells; host or cells: Saccharomyces cerevisiae MAV203 (IMAP1) / AH109 (IMAP2)
The experiment is classed as binding, HCV genotype 1b, isolate con1. Particulars: human protein as prey.

Experiment [2] has as its system HCV ORFs (Gal4-DB fusions). It is filed as binding, HCV genotype 1b, isolate con1. The settings on record: human protein listed by gene symbol; the value names the HCV protein it interacts with.

Read-outs that look alike come from different tables or passages of the source.
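Further: yeast two-hybrid screens using HCV genotype 1b proteins fused to Gal4-DB as baits against prey cDNA libraries from human spleen and foetal brain, IMAP1 via transformation and IMAP2 via mating.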

B1: TBXAS1 (protein, UniProt P24557 1-533, looked up)
Thromboxane-A synthase: MEALGFLKLEVNGPMVTVALSVALLALLKWYSTSAFSRLEKLGLRHPKPSPFIGNLTFFRQGFWESQMELRKLYGPLCGYYLGRRMFIVISEPDMIKQVLVENFSNFTNRMASGLEFKSVADSVLFLRDKRWEEVRGALMSAFSPEKLNEMVPLISQACDLLLAHLKRYAESGDAFDIQRCYCNYTTDVVASVAFGTPVDSWQAPEDPFVKHCKRFFEFCIPRPILVLLLSFPSIMVPLARILPNKNRDELNGFFNKLIRNVIALRDQQAAEERRRDFLQMVLDARHSASPMGVQDFDIVRDVFSSTGCKPNPSRQHQPSPMARPLTVDEIVGQAFIFLIAGYEIITNTLSFATYLLATNPDCQEKLLREVDVFKEKHMAPEFCSLEEGLPYLDMVIAETLRMYPPAFRFTREAAQDCEVLGQRIPAGAVLEMAVGALHHDPEHWPSPETFNPERFTAEARQQHRPFTYLPFGAGPRSCLGVRLGLLEVKLTLLHVLHKFRFQACPETQVPLQLESKSALGPKNGVYIKIVSR
As for B1, the “IMAP Y2H IMAP2 (number of IST)” value in experiment [1] (HCV protein NS3 as bait) is reported as 1. Moreover, in experiment [2], the “Interaction with viral protein” value is “NS3”.

B2: PRRC1 (protein, UniProt Q96M27 1-445, looked up)
Protein PRRC1: MMEESGIETTPPGTPPPNPAGLAATAMSSTPVPLAATSSFSSPNVSSMESFPPLAYSTPQPPLPPVRPSAPLPFVPPPAVPSVPPLVTSMPPPVSPSTAAAFGNPPVSHFPPSTSAPNTLLPAPPSGPPISGFSVGSTYDITRGHAGRAPQTPLMPSFSAPSGTGLLPTPITQQASLTSLAQGTGTTSAITFPEEQEDPRITRGQDEASAGGIWGFIKGVAGNPMVKSVLDKTKHSVESMITTLDPGMAPYIKSGGELDIVVTSNKEVKVAAVRDAFQEVFGLAVVVGEAGQSNIAPQPVGYAAGLKGAQERIDSLRRTGVIHEKQTAVSVENFIAELLPDKWFDIGCLVVEDPVHGIHLETFTQATPVPLEFVQQAQSLTPQDYNLRWSGLLVTVGEVLEKSLLNVSRTDWHMAFTGMSRRQMIYSAARAIAGMYKQRLPPRTV
Turning to B2, the “IMAP Y2H IMAP2 (number of IST)” value in experiment [1] (HCV protein NS3 as bait) is reported as 1. For the same molecule, the “Interaction with viral protein” value in experiment [2] is “NS3”.

B3: FBF1 (protein, UniProt Q8TES7 1-1133, looked up)
Fas-binding factor 1: MAPKTKKGCKVTLPEKPVKLASHTRDTTGVSQMFPSSKARTKSLLGDDVFSTMAGLEEADAEVSGISEADPQALLQAMKDLDGMDADILGLKKSNSAPSKKAAKDPGKGELPNHPKPAGGAIPTKKSLPSPSSSGHQNRRFSSEDLEDPLRGLLSYDEGGITKQPPVTQSKTASDKSPSTVRDQGPSIPLTPGDTPIRKKEELLFDDGDDIMATLGFGDSPKAEKRQIGDQEGPRPARSTLDELLGRGMATKLLARPGTGEHREFKLDKKYQRPQDSEDMWGDEDFTFGAYQPTVVSSEGRQSRRQSVSRFFADSGADPKGEPGSKQSPPMASSPIQPRKGGADWLGLKDEDLDLFPASPTREAHRESSVPVTPSVPPPASQHSTPAGLPPSRAKPPTEGAGSPAKASQASKLRASKEEKEDWLSHALSRKKSQGLAREQHAGTSEGLHLAGTAGHPPSGSQPLTSTQGLEHAAAGGSSGTTARERPCVRPGVSGSPVTQNHAASALPTGSPKRGTAPGDLSATEPATCFPSTQKPTEPSVPVQPLLPESLARSLLPSTEYQKQLLAAQVQLQCSPAELQAELLHSQARLAELEAQVRKLELERAQHELLLGSLQQQHQADLELIESAHRSRIKVLETSYQQREERLRRENEELSARYLSQCQEAEQARAELTAQHQRRLAAIAQEKDQEMERLRELQRASILDMRRDHEEQLQRLKLLKDREVDAATSATSHTRSLNSIIHQMEKFSSSLHELSSRVEASHLTTSQERELGIRQRDEQLRALQERLGQQQRDMEEERSRQQEVIGKMEARLNEQSRLLEQERWRVTAEQSKAESMQRALEEQRKVTAQQMAMERAELERAKSALLEEQKSVMLKCGEERRRLAAEWAEFSAQQKLSKERAEREAERALQVDTQREGTLISLAKQAELKIRASELRAEEKQLAAERAALEQERQELRLEKERINATALRVKLRAEEVESMSKVASEKYEEGERALREAQQVQAEQQARLQAVQQQQERLRKQEQHMHQEHLSLAQQRLQLDRARQDLPSSLVGLFPRAQGPAASSQSALMPPAPTTRWCSQPPTGLDPSPLHLHARLALLRHMAEQDRDFLENEQFFLETLKKGSYNLTSHSA
Turning to B3, the “IMAP Y2H IMAP2 (number of IST)” value in experiment [1] (HCV protein NS3 as bait) was determined as 3. Also, the “Interaction with viral protein” value in experiment [2] is recorded as “NS3”.

B4: PABPN1 (protein, UniProt Q86U42 2-306, looked up)
Polyadenylate-binding protein …: AAAAAAAAAAGAAGGRGSGPGRRRHLVPGAGGEAGEGAPGGAGDYGNGLESEELEPEELLLEPEPEPEPEEEPPRPRAPPGAPGPGPGSGAPGSQEEEEEPGLVEGDPGDGAIEDPELEAIKARVREMEEEAEKLKELQNEVEKQMNMSPPPGNAGPVIMSIEEKMEADARSIYVGNVDYGATAEELEAHFHGCGSVNRVTILCDKFSGHPKGFAYIEFSDKESVRTSLALDESLFRGRQIKVIPKRTNRPGISTTDRGFPRARYRARTTNYNSSRSRFYSGFNSRPRGRVYRGRARATSWYSPY
B4: the “IMAP Y2H IMAP2 (number of IST)” value in experiment [1] (HCV protein CORE as bait) was 1. Further, in experiment [2], the “Interaction with viral protein” value is “CORE”.

B5: NUCB1 (protein, UniProt Q02818 27-461, looked up)
Nucleobindin-1: VPLERGAPNKEETPATESPDTGLYYHRYLQEVIDVLETDGHFREKLQAANAEDIKSGKLSRELDFVSHHVRTKLDELKRQEVSRLRMLLKAKMDAEQDPNVQVDHLNLLKQFEHLDPQNQHTFEARDLELLIQTATRDLAQYDAAHHEEFKRYEMLKEHERRRYLESLGEEQRKEAERKLEEQQRRHREHPKVNVPGSQAQLKEVWEELDGLDPNRFNPKTFFILHDINSDGVLDEQELEALFTKELEKVYDPKNEEDDMREMEEERLRMREHVMKNVDTNQDRLVTLEEFLASTQRKEFGDTGEGWETVEMHPAYTEEELRRFEEELAAREAELNAKAQRLSQETEALGRSQGRLEAQKRELQQAVLHMEQRKQQQQQQQGHKAPAAHPEGQLKFHPDTDDVPVPAPAGDQKEVDTSEKKLLERLPEVEVPQHL
Take B5: the “IMAP Y2H IMAP2 (number of IST)” value in experiment [1] (HCV protein NS5A as bait) is given as 2. Further, the “Interaction with viral protein” value in experiment [2] was “NS3 and NS5A”.

B6: FAM65A (protein, UniProt Q6ZS17 1-1223, looked up)
Rho family-interacting cell …: MMSLSVRPQRRLLSARVNRSQSFAGVLGSHERGPSLSFRSFPVFSPPGPPRKPPALSRVSRMFSVAHPAAKVPQPERLDLVYTALKRGLTAYLEVHQQEQEKLQGQIRESKRNSRLGFLYDLDKQVKSIERFLRRLEFHASKIDELYEAYCVQRRLRDGAYNMVRAYTTGSPGSREARDSLAEATRGHREYTESMCLLESELEAQLGEFHLRMKGLAGFARLCVGDQYEICMKYGRQRWKLRGRIEGSGKQVWDSEETIFLPLLTEFLSIKVTELKGLANHVVVGSVSCETKDLFAALPQVVAVDINDLGTIKLSLEVTWSPFDKDDQPSAASSVNKASTVTKRFSTYSQSPPDTPSLREQAFYNMLRRQEELENGTAWSLSSESSDDSSSPQLSGTARHSPAPRPLVQQPEPLPIQVAFRRPETPSSGPLDEEGAVAPVLANGHAPYSRTLSHISEASVDAALAEASVEAVGPESLAWGPSPPTHPAPTHGEHPSPVPPALDPGHSATSSTLGTTGSVPTSTDPAPSAHLDSVHKSTDSGPSELPGPTHTTTGSTYSAITTTHSAPSPLTHTTTGSTHKPIISTLTTTGPTLNIIGPVQTTTSPTHTMPSPTHTTASPTHTSTSPTHTPTSPTHKTSMSPPTTTSPTPSGMGLVQTATSPTHPTTSPTHPTTSPILINVSPSTSLELATLSSPSKHSDPTLPGTDSLPCSPPVSNSYTQADPMAPRTPHPSPAHSSRKPLTSPAPDPSESTVQSLSPTPSPPTPAPQHSDLCLAMAVQTPVPTAAGGSGDRSLEEALGALMAALDDYRGQFPELQGLEQEVTRLESLLMQRQGLTRSRASSLSITVEHALESFSFLNEDEDEDNDVPGDRPPSSPEAGAEDSIDSPSARPLSTGCPALDAALVRHLYHCSRLLLKLGTFGPLRCQEAWALERLLREARVLEAVCEFSRRWEIPASSAQEVVQFSASRPGFLTFWDQCTERLSCFLCPVERVLLTFCNQYGARLSLRQPGLAEAVCVKFLEDALGQKLPRRPQPGPGEQLTVFQFWSFVETLDSPTMEAYVTETAEEVLLVRNLNSDDQAVVLKALRLAPEGRLRRDGLRALSSLLVHGNNKVMAAVSTQLRSLSLGPTFRERALLCFLDQLEDEDVQTRVAGCLALGCIKAPEGIEPLVYLCQTDTEAVREAARQSLQQCGEEGQSAHRRLEESLDALPRIFGPGSMASTAF
Take B6: the “IMAP Y2H IMAP2 (number of IST)” value in experiment [1] (HCV protein NS3 as bait) is given as 1. Further, the “Interaction with viral protein” value in experiment [2] was “NS3”.

B7: SYNPO2 (protein, UniProt Q9UMS6 1-1093, looked up)
Synaptopodin-2: MGTGDFICISMTGGAPWGFRLQGGKEQKQPLQVAKIRNQSKASGSGLCEGDEVVSINGNPCADLTYPEVIKLMESITDSLQMLIKRPSSGISEALISENENKNLEHLTHGGYVESTTLQIRPATKTQCTEFFLAPVKTEVPLAENQRSGPDCAGSLKEETGPSYQRAPQMPDSQRGRVAEELILREKVEAVQPGPVVELQLSLSQERHKGASGPLVALPGAEKSKSPDPDPNLSHDRIVHINSIPTNEKADPFLRSSKIIQISSGRELRVIQESEAGDAGLPRVEVILDCSDRQKTEGCRLQAGKECVDSPVEGGQSEAPPSLVSFAVSSEGTEQGEDPRSEKDHSRPHKHRARHARLRRSESLSEKQVKEAKSKCKSIALLLTDAPNPNSKGVLMFKKRRRRARKYTLVSYGTGELEREADEEEEGDKEDTCEVAFLGASESEVDEELLSDVDDNTQVVNFDWDSGLVDIEKKLNRGDKMEMLPDTTGKGALMFAKRRERMDQITAQKEEDKVGGTPSREQDAAQTDGLRTTTSYQRKEEESVRTQSSVSKSYIEVSHGLGHVPQQNGFSGTSETANIQRMVPMNRTAKPFPGSVNQPATPFSPTRNMTSPIADFPAPPPYSAVTPPPDAFSRGVSSPIAGPAQPPPWPQPAPWSQPAFYDSSERIASRDERISVPAKRTGILQEAKRRSTTKPMFTFKEPKVSPNPELLSLLQNSEGKRGTGAGGDSGPEEDYLSLGAEACNFMQSSSAKQKTPPPVAPKPAVKSSSSQPVTPVSPVWSPGVAPTQPPAFPTSNPSKGTVVSSIKIAQPSYPPARPASTLNVAGPFKGPQAAVASQNYTPKPTVSTPTVNAVQPGAVGPSNELPGMSGRGAQLFAKRQSRMEKYVVDSDTVQAHAARAQSPTPSLPASWKYSSNVRAPPPVAYNPIHSPSYPLAALKSQPSAAQPSKMGKKKGKKPLNALDVMKHQPYQLNASLFTFQPPDAKDGLPQKSSVKVNSALAMKQALPPRPVNAASPTNVQASSVYSVPAYTSPPSFFAEASSPVSASPVPVGIPTSPKQESASSSYFVAPRPKFSAKKSGVTIQVWKPSVVEE
For B7, the “IMAP Y2H IMAP2 (number of IST)” value in experiment [1] (HCV protein NS3 as bait) came to 1. Also, the “Interaction with viral protein” value in experiment [2] was “NS3”.
